According to paper PMC4039082 (Science (New York, N.Y.), 2013):

T1: Tfa1 subunit of TFIIE (S. cerevisiae, UniProt P36100 1-482)
T1 sequence (looked up): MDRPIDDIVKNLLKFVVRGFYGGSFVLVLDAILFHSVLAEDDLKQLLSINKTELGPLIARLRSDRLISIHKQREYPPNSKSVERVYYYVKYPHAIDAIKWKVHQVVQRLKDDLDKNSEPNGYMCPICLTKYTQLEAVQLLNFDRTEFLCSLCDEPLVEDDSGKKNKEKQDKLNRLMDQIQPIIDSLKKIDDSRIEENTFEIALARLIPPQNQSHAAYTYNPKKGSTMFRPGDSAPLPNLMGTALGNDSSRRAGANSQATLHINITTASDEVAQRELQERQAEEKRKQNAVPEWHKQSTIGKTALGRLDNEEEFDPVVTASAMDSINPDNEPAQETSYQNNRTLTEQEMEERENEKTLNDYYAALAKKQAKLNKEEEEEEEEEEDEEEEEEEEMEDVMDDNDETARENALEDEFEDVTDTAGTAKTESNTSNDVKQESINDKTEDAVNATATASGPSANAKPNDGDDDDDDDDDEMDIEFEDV

B1: Tfg1 subunit of TFIIF (natural protein, S. cerevisiae, UniProt P41895 1-735, looked up)
chain: MSRRNPPGSRNGGGPTNASPFIKRDRMRRNFLRMRMGQNGSNSSSPGVPNGDNSRGSLVKKDDPEYAEEREKMLLQIGVEADAGRSNVKVKDEDPNEYNEFPLRAIPKEDLENMRTHLLKFQSKKKINPVTDFHLPVRLHRKDTRNLQFQLTRAEIVQRQKEISEYKKKAEQERSTPNSGGMNKSGTVSLNNTVKDGSQTPTVDSVTKDNTANGVNSSIPTVTGSSVPPASPTTVSAVESNGLSNGSTSAANGLDGNASTANLANGRPLVTKLEDAGPAEDPTKVGMVKYDGKEVTNEPEFEEGTMDPLADVAPDGGGRAKRGNLRRKTRQLKVLDENAKKLRFEEFYPWVMEDFDGYNTWVGSYEAGNSDSYVLLSVEDDGSFTMIPADKVYKFTARNKYATLTIDEAEKRMDKKSGEVPRWLMKHLDNIGTTTTRYDRTRRKLKAVADQQAMDEDDRDDNSEVELDYDEEFADDEEAPIIDGNEQENKESEQRIKKEMLQANAMGLRDEEAPSENEEDELFGEKKIDEDGERIKKALQKTELAALYSSDENEINPYLSESDIENKENESPVKKEEDSDTLSKSKRSSPKKQQKKATNAHVHKEPTLRVKSIKNCVIILKGDKKILKSFPEGEWNPQTTKAVDSSNNASNTVPSPIKQEEGLNSTVAEREETPAPTITEKDIIEAIGDGKVNIKEFGKFIRRKYPGAENKKLMFAIVKKLCRKVGNDHMELKKE
B2: Tfg2 subunit of TFIIF (natural protein, S. cerevisiae, UniProt P41896 1-400, looked up)
chain: MSSGSAGAPALSNNSTNSVAKEKSGNISGDEYLSQEEEVFDGNDIENNETKVYEESLDLDLERSNRQVWLVRLPMFLAEKWRDRNNLHGQELGKIRINKDGSKITLLLNENDNDSIPHEYDLELTKKVVENEYVFTEQNLKKYQQRKKELEADPEKQRQAYLKKQEREEELKKKQQQQKRRNNRKKFNHRVMTDRDGRDRYIPYVKTIPKKTAIVGTVCHECQVMPSMNDPNYHKIVEQRRNIVKLNNKERITTLDETVGVTMSHTGMSMRSDNSNFLKVGREKAKSNIKSIRMPKKEILDYLFKLFDEYDYWSLKGLKERTRQPEAHLKECLDKVATLVKKGPYAFKYTLRPEYKKLKEEERKATLGELADEQTGSAGDNAQGDAEADLEDEIEMEDVV
B3: TFIIB (natural protein, S. cerevisiae, UniProt P29055 1-345, looked up)
chain: MMTRESIDKRAGRRGPNLNIVLTCPECKVYPPKIVERFSEGDVVCALCGLVLSDKLVDTRSEWRTFSNDDHNGDDPSRVGEASNPLLDGNNLSTRIGKGETTDMRFTKELNKAQGKNVMDKKDNEVQAAFAKITMLCDAAELPKIVKDCAKEAYKLCHDEKTLKGKSMESIMAASILIGCRRAEVARTFKEIQSLIHVKTKEFGKTLNIMKNILRGKSEDGFLKIDTDNMSGAQNLTYIPRFCSHLGLPMQVTTSAEYTAKKCKEIKEIAGKSPITIAVVSIYLNILLFQIPITAAKVGQTLQVTEGTIKSGYKILYEHRDKLVDPQLIANGVVSLDNLPGVEKK
B4: Tfa2 subunit of TFIIE (natural protein, S. cerevisiae, UniProt P36145 1-328, looked up)
chain: MSKNRDPLLANLNAFKSKVKSAPVIAPAKVGQKKTNDTVITIDGNTRKRTASERAQENTLNSAKNPVLVDIKKEAGSNSSNAISLDDDDDDEDFGSSPSKKVRPGSIAAAALQANQTDISKSHDSSKLLWATEYIQKKGKPVLVNELLDYLSMKKDDKVIELLKKLDRIEFDPKKGTFKYLSTYDVHSPSELLKLLRSQVTFKGISCKDLKDGWPQCDETINQLEEDSKILVLRTKKDKTPRYVWYNSGGNLKCIDEEFVKMWENVQLPQFAELPRKLQDLGLKPASVDPATIKRQTKRVEVKKKRQRKGKITNTHMTGILKDYSHRV
B5: Toa2 subunit of TFIIA (natural protein, S. cerevisiae, UniProt P32774 1-122, looked up)
chain: MAVPGYYELYRRSTIGNSLVDALDTLISDGRIEASLAMRVLETFDKVVAETLKDNTQSKLTVKGNLDTYGFCDDVWTFIVKNCQVTVEDSHRDASQNGSGDSQSVISVDKLRIVACNSKKSE
B6: Ssl2 helicase subunit of TFIIH (natural protein, S. cerevisiae, UniProt Q00578 1-843, looked up)
chain: MTDVEGYQPKSKGKIFPDMGESFFSSDEDSPATDAEIDENYDDNRETSEGRGERDTGAMVTGLKKPRKKTKSSRHTAADSSMNQMDAKDKALLQDTNSDIPADFVPDSVSGMFRSHDFSYLRLRPDHASRPLWISPSDGRIILESFSPLAEQAQDFLVTIAEPISRPSHIHEYKITAYSLYAAVSVGLETDDIISVLDRLSKVPVAESIINFIKGATISYGKVKLVIKHNRYFVETTQADILQMLLNDSVIGPLRIDSDHQVQPPEDVLQQQLQQTAGKPATNVNPNDVEAVFSAVIGGDNEREEEDDDIDAVHSFEIANESVEVVKKRCQEIDYPVLEEYDFRNDHRNPDLDIDLKPSTQIRPYQEKSLSKMFGNGRARSGIIVLPCGAGKTLVGITAACTIKKSVIVLCTSSVSVMQWRQQFLQWCTLQPENCAVFTSDNKEMFQTESGLVVSTYSMVANTRNRSHDSQKVMDFLTGREWGFIILDEVHVVPAAMFRRVVSTIAAHAKLGLTATLVREDDKIGDLNFLIGPKLYEANWMELSQKGHIANVQCAEVWCPMTAEFYQEYLRETARKRMLLYIMNPTKFQACQFLIQYHERRGDKIIVFSDNVYALQEYALKMGKPFIYGSTPQQERMNILQNFQYNDQINTIFLSKVGDTSIDLPEATCLIQISSHYGSRRQEAQRLGRILRAKRRNDEGFNAFFYSLVSKDTQEMYYSTKRQAFLVDQGYAFKVITHLHGMENIPNLAYASPRERRELLQEVLLKNEEAAGIEVGDDADNSVGRGSNGHKRFKSKAVRGEGSLSGLAGGEDMAYMEYSTNKNKELKEHHPLIRKMYYKNLKK
B7: Ssl1 subunit of core TFIIH (natural protein, S. cerevisiae, UniProt Q04673 1-461, looked up)
chain: MAPVVISESEEDEDRVAITRRTKRQVHFDGEGDDRVDQQQQQHSSSHRDRDKHVQRKKKKRLSNRNLQGSNGGYAWEDEIKRSWDLVKVDDEGDMASLVASIVEARKKRTAKKNITPYQRGIIRSLILTLDCSEAMLEKDLRPNRHAMIIQYAIDFVHEFFDQNPISQMGIIIMRNGLAQLVSQVSGNPQDHIDALKSIRKQEPKGNPSLQNALEMARGLLLPVPAHCTREVLIVFGSLSTTDPGDIHQTIDSLVSEKIRVKVLGLSAQVAICKELCKATNYGDESFYKILLDETHLKELFNEAVTPLPVNKINKGFTLVKMGFPTRIFEDTPTFCSCHSKLVYGGYFCPNCHSKVCSLPTVCPCCDLMLILSTHLARSYHHLMPLKTFAEVPTTEKFRSEDCFSCQSRFPILKNHKNGKLLTSSRYRCEDCKQEFCVDCDVFIHEILHNCPGCESKPVIT

Assays:
Test in all cases: cross-linking
[1] = target: Rpb2 subunit of pol II (S. cerevisiae, UniProt P08518 1-1224)
[2] = target: B6
[3] = target: B2
[4] = target: T1, Tfa1 subunit of TFIIE
[5] = target: Rpb1 subunit of RNA polymerase II (S. cerevisiae, UniProt P04050 1-1733)
Chain of Rpb1 subunit of RNA polymerase II (P04050 whole entry): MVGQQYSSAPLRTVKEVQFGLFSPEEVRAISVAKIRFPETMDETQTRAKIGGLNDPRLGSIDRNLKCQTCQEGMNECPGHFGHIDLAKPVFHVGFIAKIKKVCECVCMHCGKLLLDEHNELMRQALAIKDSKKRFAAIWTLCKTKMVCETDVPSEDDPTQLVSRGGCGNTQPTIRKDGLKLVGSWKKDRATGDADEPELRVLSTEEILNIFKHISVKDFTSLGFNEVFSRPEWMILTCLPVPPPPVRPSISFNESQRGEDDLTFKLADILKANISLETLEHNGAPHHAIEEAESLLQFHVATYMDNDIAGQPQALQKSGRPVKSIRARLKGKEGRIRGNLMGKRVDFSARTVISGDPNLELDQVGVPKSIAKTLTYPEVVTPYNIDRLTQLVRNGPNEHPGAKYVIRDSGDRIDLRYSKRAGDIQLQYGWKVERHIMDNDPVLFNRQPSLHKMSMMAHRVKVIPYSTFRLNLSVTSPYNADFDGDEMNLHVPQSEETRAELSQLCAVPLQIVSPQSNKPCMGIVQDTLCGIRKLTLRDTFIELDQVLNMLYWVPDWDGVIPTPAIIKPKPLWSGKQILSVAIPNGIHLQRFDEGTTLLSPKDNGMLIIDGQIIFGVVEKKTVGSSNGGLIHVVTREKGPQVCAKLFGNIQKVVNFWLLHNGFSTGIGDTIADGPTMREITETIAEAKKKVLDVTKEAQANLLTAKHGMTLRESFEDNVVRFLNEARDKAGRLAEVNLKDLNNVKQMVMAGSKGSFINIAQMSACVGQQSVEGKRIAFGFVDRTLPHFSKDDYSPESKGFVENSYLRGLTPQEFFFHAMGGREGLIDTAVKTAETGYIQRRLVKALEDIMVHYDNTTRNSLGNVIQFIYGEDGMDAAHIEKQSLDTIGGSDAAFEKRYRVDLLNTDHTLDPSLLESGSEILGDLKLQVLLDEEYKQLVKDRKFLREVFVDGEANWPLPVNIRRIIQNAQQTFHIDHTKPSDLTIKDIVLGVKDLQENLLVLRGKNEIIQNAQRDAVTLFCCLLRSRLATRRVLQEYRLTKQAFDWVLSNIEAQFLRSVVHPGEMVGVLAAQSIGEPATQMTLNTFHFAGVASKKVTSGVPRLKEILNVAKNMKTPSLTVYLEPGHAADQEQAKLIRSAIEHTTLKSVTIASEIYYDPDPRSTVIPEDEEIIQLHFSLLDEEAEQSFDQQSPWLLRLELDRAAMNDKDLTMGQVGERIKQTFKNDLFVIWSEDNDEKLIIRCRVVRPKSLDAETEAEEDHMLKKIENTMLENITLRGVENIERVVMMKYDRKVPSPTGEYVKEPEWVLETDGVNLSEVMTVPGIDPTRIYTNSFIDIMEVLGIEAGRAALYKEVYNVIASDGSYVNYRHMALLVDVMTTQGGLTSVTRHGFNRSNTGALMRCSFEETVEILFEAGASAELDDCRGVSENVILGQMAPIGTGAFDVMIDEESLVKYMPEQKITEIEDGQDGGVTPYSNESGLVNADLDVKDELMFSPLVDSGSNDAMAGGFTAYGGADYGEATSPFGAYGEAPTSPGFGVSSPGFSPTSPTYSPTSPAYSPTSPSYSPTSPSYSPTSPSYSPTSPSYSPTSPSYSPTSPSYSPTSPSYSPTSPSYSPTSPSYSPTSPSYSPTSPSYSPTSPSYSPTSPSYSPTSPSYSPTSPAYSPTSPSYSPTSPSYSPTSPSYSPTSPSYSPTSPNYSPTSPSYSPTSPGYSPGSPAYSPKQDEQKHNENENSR

Chain of Rpb2 subunit of pol II (P08518 whole entry): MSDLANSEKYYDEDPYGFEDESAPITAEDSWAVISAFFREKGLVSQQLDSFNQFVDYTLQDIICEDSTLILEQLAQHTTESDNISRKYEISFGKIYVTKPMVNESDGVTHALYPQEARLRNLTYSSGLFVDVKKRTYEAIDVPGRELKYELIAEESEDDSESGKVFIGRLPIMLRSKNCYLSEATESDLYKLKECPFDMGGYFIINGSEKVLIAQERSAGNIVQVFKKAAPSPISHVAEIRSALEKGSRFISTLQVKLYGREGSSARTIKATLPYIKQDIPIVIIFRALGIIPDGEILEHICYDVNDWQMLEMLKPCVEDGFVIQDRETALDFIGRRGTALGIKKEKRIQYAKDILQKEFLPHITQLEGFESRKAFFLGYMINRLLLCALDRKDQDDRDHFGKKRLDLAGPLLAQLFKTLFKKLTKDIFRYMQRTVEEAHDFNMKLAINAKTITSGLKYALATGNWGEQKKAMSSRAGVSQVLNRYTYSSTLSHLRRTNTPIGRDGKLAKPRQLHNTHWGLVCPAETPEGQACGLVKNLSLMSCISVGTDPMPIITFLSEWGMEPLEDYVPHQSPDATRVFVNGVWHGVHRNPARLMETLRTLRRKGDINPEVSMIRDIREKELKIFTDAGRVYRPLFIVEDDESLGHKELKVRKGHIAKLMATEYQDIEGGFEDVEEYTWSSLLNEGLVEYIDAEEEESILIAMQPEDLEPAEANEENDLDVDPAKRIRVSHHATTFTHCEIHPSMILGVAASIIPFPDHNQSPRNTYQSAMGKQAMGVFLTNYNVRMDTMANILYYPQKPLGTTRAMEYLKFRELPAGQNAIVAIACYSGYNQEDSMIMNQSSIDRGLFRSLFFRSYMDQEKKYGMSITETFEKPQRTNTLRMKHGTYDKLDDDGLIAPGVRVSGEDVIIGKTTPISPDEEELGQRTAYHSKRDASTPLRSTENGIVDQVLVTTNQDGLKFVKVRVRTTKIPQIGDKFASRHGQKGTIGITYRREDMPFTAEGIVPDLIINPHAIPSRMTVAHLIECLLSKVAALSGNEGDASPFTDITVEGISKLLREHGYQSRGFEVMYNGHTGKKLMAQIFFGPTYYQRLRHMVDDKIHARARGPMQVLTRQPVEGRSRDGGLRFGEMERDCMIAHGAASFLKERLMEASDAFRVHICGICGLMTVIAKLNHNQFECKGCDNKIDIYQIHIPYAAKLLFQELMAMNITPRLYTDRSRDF

Binder: B1
binding result [1]: binds

Binder: B2
binding result [2]: binds | binding result [1]: binds

Binder: B3
binding result [3]: binds

Binder: B4
binding result [4]: binds | binding result [3]: binds

Binder: B5
binding result [3]: binds

Binder: B6
binding result [5]: binds

Binder: B7
binding result [4]: binds
